Measurements as given in patent publication US10005846 (LIFEARC, dated 2018).
Values belong to the binder of their own block, whether it stands above or below them.

Key:
rat TG2 = biological target: T1, rat TG2 (rat, UniProt Q9WVJ6 1-686, limits assumed); assay: cell-based or functional assay
T1 sequence: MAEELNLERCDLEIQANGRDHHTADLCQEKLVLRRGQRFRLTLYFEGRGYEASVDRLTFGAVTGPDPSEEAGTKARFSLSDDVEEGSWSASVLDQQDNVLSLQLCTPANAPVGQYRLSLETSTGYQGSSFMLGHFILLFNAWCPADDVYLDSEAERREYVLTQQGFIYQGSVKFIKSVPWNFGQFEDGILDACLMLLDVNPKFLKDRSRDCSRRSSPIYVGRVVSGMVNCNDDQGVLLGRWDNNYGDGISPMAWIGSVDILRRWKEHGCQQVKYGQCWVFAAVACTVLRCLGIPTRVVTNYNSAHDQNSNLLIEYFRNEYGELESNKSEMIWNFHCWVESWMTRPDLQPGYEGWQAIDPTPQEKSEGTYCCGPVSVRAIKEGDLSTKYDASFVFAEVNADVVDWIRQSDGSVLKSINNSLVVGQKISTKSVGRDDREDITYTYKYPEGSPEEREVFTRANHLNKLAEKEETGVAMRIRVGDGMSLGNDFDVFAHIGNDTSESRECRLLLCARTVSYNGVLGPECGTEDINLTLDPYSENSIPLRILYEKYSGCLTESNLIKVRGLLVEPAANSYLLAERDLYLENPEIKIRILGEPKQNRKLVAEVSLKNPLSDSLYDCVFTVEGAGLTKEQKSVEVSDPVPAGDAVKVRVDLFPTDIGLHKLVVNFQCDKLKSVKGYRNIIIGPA

[1] = biological target: T2, human transglutaminase type 2 (TG2) (human, UniProt P21980 1-687); assay: ELISA on immobilised human TG2; r2 0.998; EC50 95% confidence range 0.1860 to 0.2368 [panel A]
T2 construct: Recombinant full-length human TG2 (Zedira; cat; T002 in the Biacore work); Also used here for the endogenous TG2 of HepG2 lysate and HK-2 cells; also called hTG2; rhTG2
T2 sequence: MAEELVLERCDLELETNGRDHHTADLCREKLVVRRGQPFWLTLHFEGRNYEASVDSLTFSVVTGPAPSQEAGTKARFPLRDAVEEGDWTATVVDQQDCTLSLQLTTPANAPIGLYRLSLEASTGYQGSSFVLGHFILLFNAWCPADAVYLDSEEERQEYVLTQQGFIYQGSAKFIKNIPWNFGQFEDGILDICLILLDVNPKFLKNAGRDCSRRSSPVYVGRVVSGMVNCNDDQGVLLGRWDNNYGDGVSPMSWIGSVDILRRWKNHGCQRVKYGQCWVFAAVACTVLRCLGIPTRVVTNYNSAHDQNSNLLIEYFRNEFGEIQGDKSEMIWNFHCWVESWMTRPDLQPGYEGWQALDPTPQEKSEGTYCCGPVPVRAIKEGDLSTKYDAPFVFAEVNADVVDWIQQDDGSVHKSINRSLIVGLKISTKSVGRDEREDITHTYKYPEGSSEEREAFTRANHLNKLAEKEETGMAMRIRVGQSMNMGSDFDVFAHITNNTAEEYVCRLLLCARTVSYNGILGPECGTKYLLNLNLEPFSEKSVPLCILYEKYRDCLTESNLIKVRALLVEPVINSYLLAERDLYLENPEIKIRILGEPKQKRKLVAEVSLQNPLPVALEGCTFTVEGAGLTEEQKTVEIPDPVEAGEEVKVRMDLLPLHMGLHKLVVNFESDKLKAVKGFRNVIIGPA
Procedure: (§1) Antibody binding to human and cynomolgus monkey TG2 was determined in an ELISA assay. Clear polystyrene "Maxisorp" 96-well plates (Nunc) were coated with 50 ng purified human or cynomogulus monkey TG2 in 50 µl 0.05 M carbonate-bicarbonate buffer pH 9.6 at 4° C. overnight. Control wells were coated with 50 µl 100 µg/ml bovine serum albumin (BSA). Plates were washed 3× with 300 µl phosphate-buffered saline pH7.4 (PBS) containing 0.1% Tween 20 (PBST) and blocked with 300 µl 3% w/v Marvel skimmed milk in PBS for 1 hour at room temperature. After 3× wash with PBST, 50 µl protein-A purified chimeric or humanised anti-TG2 antibodies or human IgG1 kappa […] control antibody or CUB7402 (Abcam) were serially diluted 4-fold from a top concentration of 50 nM in PBS, and added to the plate in duplicate. […] After 3× washes with PBST, the plates were developed with 50 µl TMB substrate (Sigma) for 5 min at room temperature before stopping the reaction with 25 µl 0.5M H2SO4 and reading absorbance at 450 nm in a microtiter plate reader (BioTek EL808). Dose response curves were analysed and EC50 values and other statistical parameters determined using a 4-parameter logistical fit of the data (GraphPad Prism).

cynomolgus monkey TG2 = biological target: T3, cynomolgus monkey TG2 (cynomolgus monkey, UniProt A0A2K5VXI8 1-687); assay: ELISA on immobilised cynomolgus monkey TG2; r2 0.9383; EC50 95% confidence range 0.03303 to 0.08079 [panel B]
T3 construct: Bought recombinant protein; also called cynomogulus monkey TG2; cyano TG2
T3 sequence: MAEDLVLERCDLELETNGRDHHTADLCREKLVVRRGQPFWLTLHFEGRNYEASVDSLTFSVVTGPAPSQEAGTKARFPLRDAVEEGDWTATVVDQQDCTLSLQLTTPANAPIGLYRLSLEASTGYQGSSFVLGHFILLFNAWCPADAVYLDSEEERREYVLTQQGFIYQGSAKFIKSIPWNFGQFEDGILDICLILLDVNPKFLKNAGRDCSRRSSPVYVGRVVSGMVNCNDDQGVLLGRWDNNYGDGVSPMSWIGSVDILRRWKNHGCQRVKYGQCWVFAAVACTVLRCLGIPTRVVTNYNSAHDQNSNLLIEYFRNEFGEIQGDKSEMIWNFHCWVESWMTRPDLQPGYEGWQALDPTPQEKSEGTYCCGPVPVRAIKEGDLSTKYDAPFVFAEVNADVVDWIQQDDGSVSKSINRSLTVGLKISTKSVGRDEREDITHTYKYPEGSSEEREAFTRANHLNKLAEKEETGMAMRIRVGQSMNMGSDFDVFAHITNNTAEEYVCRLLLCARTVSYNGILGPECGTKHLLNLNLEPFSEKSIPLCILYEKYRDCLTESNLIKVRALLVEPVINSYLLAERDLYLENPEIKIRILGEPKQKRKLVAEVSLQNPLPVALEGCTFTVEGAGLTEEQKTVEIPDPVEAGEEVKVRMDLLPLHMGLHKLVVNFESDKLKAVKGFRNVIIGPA
Procedure: as §1

- IC50, 3H-putrescine incorporation assay (rat TG2): 0.000223 mg/ml of IgG (to inhibit 1 ng of TG2)
- IC50 ratio, 3H-putrescine incorporation assay (DH2 on rat TG2 against AB-1 on human TG2) (rat TG2): 38 fold less active than AB-1 against human TG2
- IC50 ratio, 3H-putrescine incorporation assay (rat TG2 against human TG2, same antibody) (rat TG2): ~6 fold less active than against human TG2
B1: DH2 murine monoclonal antibody (antibody, V domains shown)
VH: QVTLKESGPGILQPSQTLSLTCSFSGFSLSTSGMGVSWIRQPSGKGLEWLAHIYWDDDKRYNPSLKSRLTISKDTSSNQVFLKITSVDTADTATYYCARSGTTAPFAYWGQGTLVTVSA
VL: QIVLTQSPAIMSASPGEKVTMTCSASSSVSYMYWYQQKPGSSPRLLIYDTSNLASGVPVRFSGSGSGTSYSLTISRMEAEDAATFYCQQWSSSPLTFGAGTKLELK
notes: Mouse hybridoma IgG; heavy chain amplified with primer MHCG2B, kappa light chain; also called mDH001

- EC50 [1]: 210 pM
B2: cDD9001 chimeric antibody (murine DD9 variable regions) (antibody, human IgG1, V domains shown)
VH: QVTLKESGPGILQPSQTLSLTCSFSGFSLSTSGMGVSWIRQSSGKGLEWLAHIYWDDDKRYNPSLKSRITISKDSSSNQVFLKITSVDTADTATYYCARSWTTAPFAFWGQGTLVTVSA
VL: QIVLTQSPAIMSASPGEKVTMTCSASSSVDYMYWYQQKPGSSPRLLIYDTSNLASGVPVRFSGSGSGTSYSLTISRMGAEDAATYYCQQWNSSPLTFGAGTKLELK

- EC50 (cynomolgus monkey TG2): 51.7 pM
B3: cBB001 chimeric antibody (murine BB7 variable regions) (antibody, human IgG1, V domains shown)
VH: AVQLVESGGGLVKPGGSLKLSCAASGIIFSSSAMSWVRQTPEKRLEWVATISSGGRSTYYPDSVKGRFTVSRDSAKNTLYLQMDSLRSEDTAIYYCAKLISPYWGQGTTLTVSS
VL: AIKMTQSPSSMYASLGERVIITCKASQDINSYLTWFQQKPGKSPKTLIYLTNRLMDGVPSRFSGSGSGQEFLLTISGLEHEDMGIYYCLQYVDFPYTFGGGTKLEIK
notes: also called chimeric BB7
